{"source": "paper PMC10132971", "key": {"[1]": {"target": "Smc5/6 hexameric complex lacking Nse5/6 with Nse4-6xHis-SNAP labelled with Alexa 647 (S. cerevisiae) (UniProt Q08204)", "test": "single-molecule fluorescence, counting of photobleaching steps; Alexa 647-labelled complex (2 nM unless stated otherwise) on surface-tethered lambda-DNA; 40 mM Tris-HCl pH 7.5, 100 mM NaCl, 7.5 mM MgCl2, 2 mM ATP, 30 °C; loop-extruding complexes", "conditions": "remark: other sources report otherwise"}, "[2]": {"target": "Smc5/6 hexameric complex lacking Nse5/6 (S. cerevisiae) (UniProt Q08204)"}, "[3]": {"target": "Smc5/6 hexameric complex lacking Nse5/6 (S. cerevisiae) (UniProt Q08204)", "test": "mass photometry; 10 nM hexamer with 10 nM purified Nse5/6 (1:1) and 5 nM 200 bp DNA, no ATP; 40 mM Tris-HCl pH 7.5, 100 mM potassium glutamate, 7.5 mM MgCl2, 30 °C for 10 min", "conditions": "remark: other sources report otherwise"}, "[4]": {"target": "Smc5/6 hexameric complex lacking Nse5/6 (S. cerevisiae) (UniProt Q08204)", "test": "mass photometry; 10 nM complex with 5 nM 200 bp linear double-stranded DNA, no ATP; 40 mM Tris-HCl pH 7.5, 100 mM potassium glutamate, 7.5 mM MgCl2, 30 °C for 10 min; monomer to dimer of complexes", "conditions": "remark: other sources report otherwise"}, "[5]": {"target": "Smc5/6 octameric complex with Nse2-6xHis-SNAP labelled with Alexa 647 (S. cerevisiae) (UniProt Q08204)", "test": "single-molecule fluorescence, counting of photobleaching steps; Alexa 647-labelled complex (2 nM unless stated otherwise) on surface-tethered lambda-DNA; 40 mM Tris-HCl pH 7.5, 100 mM NaCl, 7.5 mM MgCl2, 2 mM ATP, 30 °C; loop-extruding complexes"}, "[6]": {"target": "Smc5/6 octameric complex with Nse4-6xHis-SNAP labelled with Alexa 647 (S. cerevisiae) (UniProt Q08204)", "test": "single-molecule fluorescence, counting of photobleaching steps; Alexa 647-labelled complex (2 nM unless stated otherwise) on surface-tethered lambda-DNA; 40 mM Tris-HCl pH 7.5, 100 mM NaCl, 7.5 mM MgCl2, 2 mM ATP, 30 °C; loop-extruding complexes"}, "[7]": {"target": "Smc5/6 hexamer (lacking Nse5/6) (Saccharomyces cerevisiae (W303)) (UniProt Q08204+Q12749+Q07913+P38632+Q05541+P43124)", "test": "single-molecule fluorescence", "conditions": "1 M NaCl wash; both ends tethered to surface; Mass photometry: 40 mM Tris-HCl pH 7.5, 100 mM K-glutamate, 7.5 mM MgCl2, 30 C, 10 nM protein, 5 nM DNA; single-molecule: 2 nM Smc5/6, imaging buffer with …"}, "[8]": {"target": "Smc5/6 octamer (WT, with Nse5/6) (Saccharomyces cerevisiae (W303)) (UniProt Q08204+Q12749+Q07913+P38632+Q05541+P43124+Q03718+P40026)", "test": "single-molecule fluorescence", "conditions": "1 M NaCl wash after 1 h incubation; nonlooping complexes, n=481; both ends tethered to surface; Mass photometry: 40 mM Tris-HCl pH 7.5, 100 mM K-glutamate, 7.5 mM MgCl2, 30 C, 10 nM protein, 5 nM DNA; single-molecule: 2 nM Smc5/6, imaging buffer with …"}}}
{"substance": "Smc5/6 hexameric complex lacking Nse5/6 with Nse4-6xHis-SNAP labelled with Alexa 647, Q08204 1-1093; Q12749 1-1114; Q07913 1-336; P38632 1-267; Q05541 1-303; P43124 1-402", "values": [{"measurement": "stoichiometry N", "setting": "[1]", "result": 2}]}
{"substance": "Smc5/6 hexameric complex lacking Nse5/6, Q08204 1-1093; Q12749 1-1114; Q07913 1-336; P38632 1-267; Q05541 1-303; P43124 1-402", "values": [{"measurement": "looping probability of DNA with the hexamer compared with the WT octamer", "setting": "[2]", "result": 15, "unit": "fold"}, {"measurement": "dimers, percent of total counts, with Nse5/6 added 1:1", "setting": "[3]", "result": 3, "unit": "%"}, {"measurement": "dimers, percent of normalized population", "setting": "[4]", "result": 40, "unit": "%"}, {"measurement": "dimers, percent of total counts", "setting": "[4]", "result": 25, "unit": "%"}]}
{"substance": "Smc5/6 octameric complex with Nse2-6xHis-SNAP labelled with Alexa 647 (from UniProt Q08204 1-1093; Q12749 1-1114; Q07913 1-336; P38632 1-267; Q05541 1-303; P43124 1-402; Q03718 1-556)", "values": [{"measurement": "stoichiometry N", "setting": "[5]", "result": 2}]}
{"substance": "Smc5/6 octameric complex with Nse4-6xHis-SNAP labelled with Alexa 647 (from UniProt Q08204 1-1093; Q12749 1-1114; Q07913 1-336; P38632 1-267; Q05541 1-303; P43124 1-402; Q03718 1-556)", "values": [{"measurement": "dimer fraction", "setting": "[6]", "result": 100, "unit": "%"}, {"measurement": "stoichiometry N", "setting": "[6]", "result": 2}]}
{"substance": "lambda DNA, 48.5 kbp (48,502 bp)", "values": [{"measurement": "binding signal (% remaining bound after high-salt wash)", "setting": "[7]", "result": 0}, {"measurement": "binding signal (% remaining bound after high-salt wash)", "setting": "[8]", "result": 7}]}
